1 molecule from patent US20100028924A1, “Method Of Diagnosing Pon1-Hdl Associated Lipid Disorders” (Rappaport Family Institute Research in the Medical Sciences, priority 2006, published 2010) can be followed below.

What all share (type): biochemical
Data set [1] relates to apoA-I rHDL. The experiment in a line: Inactivation kinetics of rePON1 192 isozymes bound to rHDL-apoA-I (EDTA/β-mercaptoethanol, residual phenyl acetate hydrolysis). The note with it: apoA-I rHDL, 50-fold molar excess; EDTA and β-mercaptoethanol, 37° C. How it is done: (§1) FIG. 1 is a graph showing the inactivation kinetics of the wild-type rePON1-192K (SEQ ID NO:2), -192R (SEQ ID NO:4) and -192Q (SEQ ID NO:6) isozymes, bound to rHDL-apoA-I, or in buffer. Delipidated enzymes were incubated with a 50-fold excess of rHDL-apoA-I, or in activity buffer, and subjected to inactivation in the presence of EDTA (5 mM) and β-mercaptoethanol (10 mM) at 37° C. Residual activity at various time points was determined by initial rates of phenyl acetate hydrolysis (2 mM) and plotted as percent of the activity at time zero. Data were fitted to a single exponential for wild-type rePON1-192K on rHDL-apoA-I, and to double-exponentials for the remaining samples. The inactivation rate constants and amplitudes were derived from this fit;
(§2) Inactivation rates of rePON1s were measured as described [Gaidukov, L. and D. S. Tawfik, Biochemistry, 2005. 44(35): p. 11843-54]. Briefly, rePON1 samples were delipidated using Bio-Beads SM-2 (BioRad) and incubated in buffer, or with 50-fold molar excess of rHDL-apoA-I. EDTA (10 mM) and β-mercaptoethanol (20 mM) were added, and samples were incubated at 37° C. Residual activity at different time points was determined with 2 mM phenyl acetate, and inactivation rates were fitted to either mono- or double-exponentials [Gaidukov, L. and D. S. Tawfik, Biochemistry, 2005. 44(35): p. 11843-54].
(§3) The resultant inactivation profiles of wt rePON1 (SEQ ID NO: 2), rePON1-192Q (SEQ ID NO: 6) and rePON1-192R (SEQ ID NO: 4), were fitted to exponential curves as illustrated in FIG. 1.

Data set [2] can be described thus: Inactivation kinetics of rePON1 192 isozymes in activity buffer. The settings on record: EDTA and β-mercaptoethanol, 37° C. How it is done:
as §1, §2, §3

The test system of data set [3] is apoA-I rHDL. The experiment in a line: Stimulation of enzymatic activity of rePON1 192 isozymes by rHDL-apoA-I. The settings on record: for Vmax (%) activation factor: relative to delipidated enzyme (100%). An excerpt:
The activity is presented in relation to the initial activity of the delipidated enzymes (percentage of stimulation). Data were fitted to the Langmuir saturation curve, from which the activation factor (Vmax) and the apparent affinity (Kapp) were derived;
Stimulated activity is presented as the percentage of the initial activity of the delipidated enzymes (corresponds to 100%). Data were fitted to the Langmuir saturation curve, from which the activation factor (Vmax) and the apparent affinity (Kapp) were derived;
Delipidated rePONs at 0.2 μM were incubated with a range of rHDL concentrations (0.1-10 μM) for 3 hrs at 37° C. Enzymatic activity was determined in activity buffer (50 mM Tris pH 8.0, 1 mM CaCl2) with substrates at 1 mM concentrations as described [Gaidukov, L. and D. S. Tawfik, Biochemistry, 2005. 44(35): p. 11843-54]. 5-(thiobutyl)-butyrolactone (TBBL) was applied at 0.25 mM, and product formation was monitored spectrophotometrically at 412 nm using 5,5′-dithio-bis-2-nitrobenzoic acid (DTNB) as described [Khersonsky, O. and D. S. Tawfik, Chembiochem, 2006. 7(1): p. 49-53].
Stimulation of the enzymatic activity was examined by incubating rePON1 isozymes with a range of rHDL concentrations (at the HDL/PON ratio of 0.5-50), and measuring the catalytic activity with various substrates as detailed hereinabove. FIGS. 3A-B illustrate the enzymatic activity of the rePON1 isozymes with δ-nonanoic lactone as substrate (FIG. 3A) and thiobutyl butiryl lactone (TBBL) as substrate (FIG. 3B). FIGS. 4A-D illustrate the enzymatic activity of the rePON1 isozymes with γ-dodecanoic lactone as substrate (FIG. 4A), δ-valerolactone as substrate (FIG. 4B), phenyl acetate as substrate (FIG. 4C) and paraoxon as substrate (FIG. 4D). Data were fitted to the Langmuir saturation curve to give the activation factor Vmax (in percent relative to the delipidated PON1) and the apparent affinity Kapp.

Setting [4] is: substrate γ-dodecanoic lactone 1 mM.
[5] abbreviates: substrate δ-nonanoic lactone 1 mM.

B1: rePON1-192R: recombinant PON1 with arginine at position 192, generated to mimic the human R isozyme (protein)
chain: MAKLTALTLLGLGLALFDGQKSSFQTRFNVHREVTPVELPNCNLVKGVDNGSEDLEILPNGLAFISSGLKYPGIMSFDPDKSGKILLMDLNEEDPVVLELGITGNTLDISSFNPHGISTFTDEDNTVYLLVVNHPDSSSTVEVFKFQEEEKSLLHLKTIRHKLLPSVNDIVAVGPEHFYATNDHYFADPYLRSWEMHLGLAWSFVTYYSPNDVRVVAEGFDFANGINISPDGKYVYIAELLAHKIHVYEKHANWTLTPLKSLDFDTLVDNISVDPVTGDLWVGCHPNGMRIFYYDPKNPPGSEVLRIQDILSEEPKVTVVYAENGTVLQGSTVAAVYKGKLLIGTVFHKALYCEL
modifications: rePON1-192R isozyme
notes: recombinant PON1 with arginine at position 192, generated to mimic the human R isozyme
As for B1, the “A2 (%) (amplitude of second, slow inactivation phase = HDL-bound fraction)” value in the data set on apoA-I rHDL [1] was 90%. Besides, the “k1^inactiv (first, fast phase)” value with apoA-I rHDL [1] came out at 0.9 h⁻¹; in data set [2], 5.5 h⁻¹. Also, the figures for the “k2^inactiv (second, slow phase)” value (in the data set on apoA-I rHDL [1]; in data set [2]) were 0.01 h⁻¹ and 0.2 h⁻¹, respectively. Moreover, the “reduction of Vmax compared to wt rePON1-192K” value with apoA-I rHDL [3] (all the substrates tested) is on record as 10-30%. Moreover, the “Kapp (apparent affinity for HDL stimulation)” value is 0.4 ± 0.1 µM in the data set with apoA-I rHDL [3] (substrate TBBL 0.25 mM); 0.8 ± 0.1 µM in the data set with apoA-I rHDL [3] (substrate phenyl acetate 1 mM); 0.9 ± 0.1 µM with apoA-I rHDL [3] (setting [4]); 1.5 ± 0.1 µM in the data set with apoA-I rHDL [3] (setting [5]); 1.1 ± 0.1 µM in the data set on apoA-I rHDL [3] (substrate δ-valerolactone 1 mM). The “Vmax (%) activation factor” value is on record as 579 ± 6% in the data set with apoA-I rHDL [3] (substrate TBBL 0.25 mM); 200 ± 1% in the data set on apoA-I rHDL [3] (substrate paraoxon 1 mM); 336 ± 4% in the data set with apoA-I rHDL [3] (substrate phenyl acetate 1 mM); 1258 ± 21% in the data set on apoA-I rHDL [3] (setting [4]); 1351 ± 20% with apoA-I rHDL [3] (setting [5]); 1403 ± 13% in the data set with apoA-I rHDL [3] (substrate δ-valerolactone 1 mM).
